Data set [1] deals with T1, LE-AmDH-v1 (ε-deaminating L-lysine dehydrogenase LysEDH F173A) (Geobacillus stearothermophilus, UniProt Q9AJC6, F173A).
T1 construct: gene lysDH
The data set can be described thus: steady-state kinetics, Lineweaver-Burk competitive product inhibition, NADH oxidation at […] nm, […] °C. It is filed as biochemical.

A further data set deals with O=Cc1ccccc1. The data set can be described thus: purified protein. The note with it: NADH.
The subject of the next data set is CC(=O)c1ccccc1. In words: purified protein. The note with it: NADH model: phenyl ring in the new hydrophobic cavity created by F173A.

The molecule `C[C@@H](N)c1ccccc1` [(R)-8b] registered an inhibition constant (Ki) in data set [1] of 4.48 mM. With “LE-AmDH-v1 (ε-deaminating L-lysine dehydrogenase LysEDH F173A) (Geobacillus stearothermophilus; F173A)”, the figures for the Km in the data set with O=Cc1ccccc1 and with CC(=O)c1ccccc1 were 4.9 ± 0.5 mM and 5.5 ± 0.5 mM, respectively.

Usually Ki stands for the equilibrium dissociation constant of an inhibitor or competing ligand from its target. A high value points to weaker binding. A word on the Km: it is the substrate concentration at which the rate is half of its maximum.

These data come from publication PMC6697735, “Generation of amine dehydrogenases with increased catalytic performance and substrate scope from ε-deaminating L-Lysine dehydrogenase” (Nature Communications, 2019).
